Data on two molecules can be found in paper PMC11299580, “Discovery of novel disease-causing mutation in SSBP1 and its correction using adenine base editor to improve mitochondrial function” (Molecular Therapy. Nucleic Acids, 2023).

Series [1] deals with the molecule itself. Kind of series: cross-linking; glutaraldehyde cross-linking of recombinant SSBP1 proteins, SDS-PAGE with Coomassie staining and SSBP1 immunoblot, band intensities quantified with ImageJ (n = 3). On the technique in general: In western blotting, separated proteins are transferred to a membrane and probed.
In a further series the target is T1, SSBP1 wild-type (Homo sapiens, UniProt Q04837 17-148).
T1 sequence: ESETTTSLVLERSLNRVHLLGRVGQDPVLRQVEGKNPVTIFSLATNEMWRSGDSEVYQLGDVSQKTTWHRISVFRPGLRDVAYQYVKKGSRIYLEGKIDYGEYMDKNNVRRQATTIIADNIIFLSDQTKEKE
The series is described as follows: EMSA; probe 0.25 uM (far above Kd); legend gives protein 0-2 nM, main text figure 1 uM; units doubtful; 50 mM Tris pH 7.5, 150 mM NaCl, 10% glycerol, 30 min at room temperature; 2% agarose gel in 1x TBE. As to conditions: protein: recombinant; tags: IMAC tag (probably His); chain copies: 4. On the technique in general: Mobility shift assays separate free from complexed probe on a gel.

B1: single-stranded DNA-binding protein 1 (SSBP1), wild-type recombinant protein (natural protein, human, UniProt Q04837 17-148, looked up)
chain: ESETTTSLVLERSLNRVHLLGRVGQDPVLRQVEGKNPVTIFSLATNEMWRSGDSEVYQLGDVSQKTTWHRISVFRPGLRDVAYQYVKKGSRIYLEGKIDYGEYMDKNNVRRQATTIIADNIIFLSDQTKEKE
notes: A human SSBP1 cDNA clone (Origene RC215106) is named only for expression in mammalian cells; also called wild-type SSBP1; source: E. coli BL21 (DE3), purified (HiTrap IMAC, dialysis, Superdex 200 SEC)
Consider B1, for which, in series [1], the binding result is “binds”.

By Kd is commonly meant a measure of binding affinity in units of concentration. Turning to GGACTATTTATTCAATATATTTAAGAACTAATTCCAGCTGAGCGCCGG (ssDNA) [EMSA ssDNA probe], the Kd in the series with SSBP1 wild-type worked out at 11.2 ± 0.89 nM.
